Measured values published in patent publication US6403765B1, “Truncated Apaf-1 and methods of use thereof” (Thomas Jefferson University, priority 1998, dated 2002).
Changes are numbered by the printed parent chain.

Columns and labels:
Test in all cases: In vitro caspase 9 activation assay: recombinant Apaf-1 variants incubated with in vitro translated procaspase-9
Format in all cases: biochemical
procaspase-9 [1] = target: T1, procaspase-9 (Homo sapiens, UniProt P55211, C287A)
T1 construct: schematic representation of full length procaspase-9; made in house; host or cells: coupled in vitro transcription/translation in rabbit reticulocyte lysate (TNT Kit, Promega)
T1 sequence (P55211 1-416 C287A): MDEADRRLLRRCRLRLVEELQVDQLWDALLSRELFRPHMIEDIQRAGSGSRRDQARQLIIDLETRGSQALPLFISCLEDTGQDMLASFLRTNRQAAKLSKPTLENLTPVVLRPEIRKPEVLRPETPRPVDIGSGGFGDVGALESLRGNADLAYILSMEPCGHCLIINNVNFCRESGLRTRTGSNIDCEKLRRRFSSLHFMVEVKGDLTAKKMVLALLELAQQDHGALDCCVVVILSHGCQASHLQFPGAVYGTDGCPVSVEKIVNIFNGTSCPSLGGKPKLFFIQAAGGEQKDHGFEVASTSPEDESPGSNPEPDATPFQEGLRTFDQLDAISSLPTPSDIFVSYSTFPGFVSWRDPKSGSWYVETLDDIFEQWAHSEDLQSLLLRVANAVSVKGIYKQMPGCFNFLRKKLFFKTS

procaspase-9 [2] = target: T2, procaspase-9 (Homo sapiens, UniProt P55211)
T2 construct: schematic representation of full length procaspase-9; made in house; host or cells: coupled in vitro transcription/translation in rabbit reticulocyte lysate (TNT Kit, Promega)
T2 sequence (P55211 134-416): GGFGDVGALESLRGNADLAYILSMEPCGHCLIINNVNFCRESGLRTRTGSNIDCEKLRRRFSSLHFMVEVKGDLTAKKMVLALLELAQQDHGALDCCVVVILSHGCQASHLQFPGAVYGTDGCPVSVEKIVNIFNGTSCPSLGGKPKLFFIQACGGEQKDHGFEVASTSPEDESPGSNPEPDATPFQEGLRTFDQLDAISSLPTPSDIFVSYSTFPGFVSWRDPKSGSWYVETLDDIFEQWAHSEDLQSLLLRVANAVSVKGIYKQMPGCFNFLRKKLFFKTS

procaspase-9 [3] = target: T3, procaspase-9 (Homo sapiens, UniProt P55211); settings: in the absence of cytochrome c or dATP; 200 ng protein, 2 h at 30° C.; SDS-PAGE and autoradiography (FIG. 2A)
T3 construct: schematic representation of full length procaspase-9; made in house; host or cells: coupled in vitro transcription/translation in rabbit reticulocyte lysate (TNT Kit, Promega)
T3 sequence (P55211 1-416): T1 sequence (P55211 1-416 C287A) with A287C

procaspase-9 [4] = test system: procaspase-9
procaspase-9 [5] = target: T4, procaspase-9 (Homo sapiens, UniProt P55211, D315A); settings: 35S-labeled substrate, FIG. 3
T4 construct: schematic representation of full length procaspase-9; made in house; host or cells: coupled in vitro transcription/translation in rabbit reticulocyte lysate (TNT Kit, Promega)
T4 sequence (P55211 1-416 D315A): T1 sequence (P55211 1-416 C287A) with A287C, D315A

[6] = in the presence of non-radiolabeled WT procaspase-9, FIG. 14

processing of procaspase-9 active site C287A mutant (procaspase-9 [1]; 35S-labeled substrate, FIG. 3): unable to promote processing
processing of 35S-labeled C287A mutant procaspase-9 (procaspase-9 [1]; [6]): able to induce processing
processing of prodomainless procaspase-9 (residues 134-416) (procaspase-9 [2]; 35S-labeled substrate, FIG. 3): prevented processing
processing of 35S-labeled prodomainless procaspase-9 (procaspase-9 [2]; [6]): not
processing of WT or D330A mutant procaspase-9 (procaspase-9 [4]; 35S-labeled substrate, FIG. 3): produced the p35 fragment
processing of D315A mutant procaspase-9 (procaspase-9 [5]): unable to process
B1: Apaf-530: truncated Apaf-1 (residues 1-530) lacking its WD-40 repeats, recombinant (protein, UniProt O14727 1-530, looked up, fragment)
chain: MDAKARNCLLQHREALEKDIKTSYIMDHMISDGFLTISEEEKVRNEPTQQQRAAMLIKMILKKDNDSYVSFYNALLHEGYKDLAALLHDGIPVVSSSSGKDSVSGITSYVRTVLCEGGVPQRPVVFVTRKKLVNAIQQKLSKLKGEPGWVTIHGMAGCGKSVLAAEAVRDHSLLEGCFPGGVHWVSVGKQDKSGLLMKLQNLCTRLDQDESFSQRLPLNIEEAKDRLRILMLRKHPRSLLILDDVWDSWVLKAFDSQCQILLTTRDKSVTDSVMGPKYVVPVESSLGKEKGLEILSLFVNMKKADLPEQAHSIIKECKGSPLVVSLIGALLRDFPNRWEYYLKQLQNKQFKRIRKSSSYDYEALDEAMSISVEMLREDIKDYYTDLSILQKDVKVPTKVLCILWDMETEEVEDILQEFVNKSLLFCDRNGKSFRYYLHDLQVDFLTEKNCSQLQDLHKKIITQFQRYHQPHTLSPDQEDCMYWYNFLAYHMASAKMHKELCALMFSLDWIKAKTELVGPAHLIHEFVEYR
processing of procaspase-9 to produce a 35 kDa fragment (p35) (procaspase-9 [3]): able to promote processing of procaspase-9
autoprocessing of C287A and R355E mutant procaspase-9 (procaspase-9 [4]; mutants incubated separately or together, 1 hour at 30° C., FIG. 13): none of the mutants were able to autoprocess
